These results are taken from US20210388087A1 (Chugai, published 2021).

The labels stand for the following.
B1: CE115HA000 S74P (antibody, human IgG1, kappa, L234A L235A, N297A, name in Kabat numbering)
heavy: QVQLVESGGGVVQPGRSLRLSCAASGFTFSNAWMHWVRQAPGKGLEWVAQIKAKSNNYATYYAESVKGRFTISRDDPKNSLYLQMNSLKTEDTAVYYCRYVHYGAYYGVDAWGQGTTVTVSSASTKGPSVFPLAPSSKSTSGGTAALGCLVKDYFPEPVTVSWNSGALTSGVHTFPAVLQSSGLYSLSSVVTVPSSSLGTQTYICNVNHKPSNTKVDKKVEPKSCDKTHTCPPCPAPEAAGGPSVFLFPPKPKDTLMISRTPEVTCVVVDVSHEDPEVKFNWYVDGVEVHNAKTKPREEQYASTYRVVSVLTVLHQDWLNGKEYKCKVSNKALPAPIEKTISKAKGQPREPQVYTLPPSRCELTKNQVSLSCAVKGFYPSDIAVEWESNGQPENNYKTTPPVLDSDGSFFLVSKLTVDKSRWQQGNVFSCSVMHEALHNHYTQKSLSLSPDYKDDDDK
chain: EPKSSDKTHTCPPCPAPELLGGPSVFLFPPKPKDTLMISRTPEVTCVVVDVSHEDPEVKFNWYVDGVEVHNAKTKPREEQYNSTYRVVSVLTVLHQDWLNGKEYKCKVSNKALPAPIEKTISKAKGQPREPQVCTLPPSRDELTKNQVSLWCLVKGFYPSDIAVEWESNGQPENNYKTTPPVLDSDGSFFLYSKLTVDKSRWQQGNVFSCSVMHEALHNRYTQKSLSLSP
light: DIVMTQSPLSLPVTPGEPASISCRSSQSLVHSNRNTYLHWYQQKPGQAPRLLIYKVSNRFSGVPDRFSGSGSGTDFTLKISRVEAEDVGVYYCGQGTQVPYTFGQGTKLEIKRTVAAPSVFIFPPSDEQLKSGTASVVCLLNNFYPREAKVQWKVDNALQSGNSQESVTEQDSKDSTYSLSSTLTLSKADYEKHKVYACEVTHQGLSSPVTKSFNRGEC
notes: one-arm antibody
B2: CE115HA000 T28D (antibody, human IgG1, kappa, L234A L235A, N297A, name in Kabat numbering)
heavy: QVQLVESGGGVVQPGRSLRLSCAASGFDFSNAWMHWVRQAPGKGLEWVAQIKAKSNNYATYYAESVKGRFTISRDDSKNSLYLQMNSLKTEDTAVYYCRYVHYGAYYGVDAWGQGTTVTVSSASTKGPSVFPLAPSSKSTSGGTAALGCLVKDYFPEPVTVSWNSGALTSGVHTFPAVLQSSGLYSLSSVVTVPSSSLGTQTYICNVNHKPSNTKVDKKVEPKSCDKTHTCPPCPAPEAAGGPSVFLFPPKPKDTLMISRTPEVTCVVVDVSHEDPEVKFNWYVDGVEVHNAKTKPREEQYASTYRVVSVLTVLHQDWLNGKEYKCKVSNKALPAPIEKTISKAKGQPREPQVYTLPPSRCELTKNQVSLSCAVKGFYPSDIAVEWESNGQPENNYKTTPPVLDSDGSFFLVSKLTVDKSRWQQGNVFSCSVMHEALHNHYTQKSLSLSPDYKDDDDK
chain: EPKSSDKTHTCPPCPAPELLGGPSVFLFPPKPKDTLMISRTPEVTCVVVDVSHEDPEVKFNWYVDGVEVHNAKTKPREEQYNSTYRVVSVLTVLHQDWLNGKEYKCKVSNKALPAPIEKTISKAKGQPREPQVCTLPPSRDELTKNQVSLWCLVKGFYPSDIAVEWESNGQPENNYKTTPPVLDSDGSFFLYSKLTVDKSRWQQGNVFSCSVMHEALHNRYTQKSLSLSP
light: DIVMTQSPLSLPVTPGEPASISCRSSQSLVHSNRNTYLHWYQQKPGQAPRLLIYKVSNRFSGVPDRFSGSGSGTDFTLKISRVEAEDVGVYYCGQGTQVPYTFGQGTKLEIKRTVAAPSVFIFPPSDEQLKSGTASVVCLLNNFYPREAKVQWKVDNALQSGNSQESVTEQDSKDSTYSLSSTLTLSKADYEKHKVYACEVTHQGLSSPVTKSFNRGEC
notes: one-arm antibody
B3: CE115HA000 T28S (antibody, human IgG1, kappa, L234A L235A, N297A, name in Kabat numbering)
heavy: QVQLVESGGGVVQPGRSLRLSCAASGFSFSNAWMHWVRQAPGKGLEWVAQIKAKSNNYATYYAESVKGRFTISRDDSKNSLYLQMNSLKTEDTAVYYCRYVHYGAYYGVDAWGQGTTVTVSSASTKGPSVFPLAPSSKSTSGGTAALGCLVKDYFPEPVTVSWNSGALTSGVHTFPAVLQSSGLYSLSSVVTVPSSSLGTQTYICNVNHKPSNTKVDKKVEPKSCDKTHTCPPCPAPEAAGGPSVFLFPPKPKDTLMISRTPEVTCVVVDVSHEDPEVKFNWYVDGVEVHNAKTKPREEQYASTYRVVSVLTVLHQDWLNGKEYKCKVSNKALPAPIEKTISKAKGQPREPQVYTLPPSRCELTKNQVSLSCAVKGFYPSDIAVEWESNGQPENNYKTTPPVLDSDGSFFLVSKLTVDKSRWQQGNVFSCSVMHEALHNHYTQKSLSLSPDYKDDDDK
chain: EPKSSDKTHTCPPCPAPELLGGPSVFLFPPKPKDTLMISRTPEVTCVVVDVSHEDPEVKFNWYVDGVEVHNAKTKPREEQYNSTYRVVSVLTVLHQDWLNGKEYKCKVSNKALPAPIEKTISKAKGQPREPQVCTLPPSRDELTKNQVSLWCLVKGFYPSDIAVEWESNGQPENNYKTTPPVLDSDGSFFLYSKLTVDKSRWQQGNVFSCSVMHEALHNRYTQKSLSLSP
light: DIVMTQSPLSLPVTPGEPASISCRSSQSLVHSNRNTYLHWYQQKPGQAPRLLIYKVSNRFSGVPDRFSGSGSGTDFTLKISRVEAEDVGVYYCGQGTQVPYTFGQGTKLEIKRTVAAPSVFIFPPSDEQLKSGTASVVCLLNNFYPREAKVQWKVDNALQSGNSQESVTEQDSKDSTYSLSSTLTLSKADYEKHKVYACEVTHQGLSSPVTKSFNRGEC
notes: one-arm antibody
B4: CE115HA000 T57I (antibody, human IgG1, kappa, L234A L235A, N297A, name in Kabat numbering)
heavy: QVQLVESGGGVVQPGRSLRLSCAASGFTFSNAWMHWVRQAPGKGLEWVAQIKAKSNNYAIYYAESVKGRFTISRDDSKNSLYLQMNSLKTEDTAVYYCRYVHYGAYYGVDAWGQGTTVTVSSASTKGPSVFPLAPSSKSTSGGTAALGCLVKDYFPEPVTVSWNSGALTSGVHTFPAVLQSSGLYSLSSVVTVPSSSLGTQTYICNVNHKPSNTKVDKKVEPKSCDKTHTCPPCPAPEAAGGPSVFLFPPKPKDTLMISRTPEVTCVVVDVSHEDPEVKFNWYVDGVEVHNAKTKPREEQYASTYRVVSVLTVLHQDWLNGKEYKCKVSNKALPAPIEKTISKAKGQPREPQVYTLPPSRCELTKNQVSLSCAVKGFYPSDIAVEWESNGQPENNYKTTPPVLDSDGSFFLVSKLTVDKSRWQQGNVFSCSVMHEALHNHYTQKSLSLSPDYKDDDDK
chain: EPKSSDKTHTCPPCPAPELLGGPSVFLFPPKPKDTLMISRTPEVTCVVVDVSHEDPEVKFNWYVDGVEVHNAKTKPREEQYNSTYRVVSVLTVLHQDWLNGKEYKCKVSNKALPAPIEKTISKAKGQPREPQVCTLPPSRDELTKNQVSLWCLVKGFYPSDIAVEWESNGQPENNYKTTPPVLDSDGSFFLYSKLTVDKSRWQQGNVFSCSVMHEALHNRYTQKSLSLSP
light: DIVMTQSPLSLPVTPGEPASISCRSSQSLVHSNRNTYLHWYQQKPGQAPRLLIYKVSNRFSGVPDRFSGSGSGTDFTLKISRVEAEDVGVYYCGQGTQVPYTFGQGTKLEIKRTVAAPSVFIFPPSDEQLKSGTASVVCLLNNFYPREAKVQWKVDNALQSGNSQESVTEQDSKDSTYSLSSTLTLSKADYEKHKVYACEVTHQGLSSPVTKSFNRGEC
notes: one-arm antibody
B5: CE115HA000 T57A (antibody, human IgG1, kappa, L234A L235A, N297A, name in Kabat numbering)
heavy: QVQLVESGGGVVQPGRSLRLSCAASGFTFSNAWMHWVRQAPGKGLEWVAQIKAKSNNYAAYYAESVKGRFTISRDDSKNSLYLQMNSLKTEDTAVYYCRYVHYGAYYGVDAWGQGTTVTVSSASTKGPSVFPLAPSSKSTSGGTAALGCLVKDYFPEPVTVSWNSGALTSGVHTFPAVLQSSGLYSLSSVVTVPSSSLGTQTYICNVNHKPSNTKVDKKVEPKSCDKTHTCPPCPAPEAAGGPSVFLFPPKPKDTLMISRTPEVTCVVVDVSHEDPEVKFNWYVDGVEVHNAKTKPREEQYASTYRVVSVLTVLHQDWLNGKEYKCKVSNKALPAPIEKTISKAKGQPREPQVYTLPPSRCELTKNQVSLSCAVKGFYPSDIAVEWESNGQPENNYKTTPPVLDSDGSFFLVSKLTVDKSRWQQGNVFSCSVMHEALHNHYTQKSLSLSPDYKDDDDK
chain: EPKSSDKTHTCPPCPAPELLGGPSVFLFPPKPKDTLMISRTPEVTCVVVDVSHEDPEVKFNWYVDGVEVHNAKTKPREEQYNSTYRVVSVLTVLHQDWLNGKEYKCKVSNKALPAPIEKTISKAKGQPREPQVCTLPPSRDELTKNQVSLWCLVKGFYPSDIAVEWESNGQPENNYKTTPPVLDSDGSFFLYSKLTVDKSRWQQGNVFSCSVMHEALHNRYTQKSLSLSP
light: DIVMTQSPLSLPVTPGEPASISCRSSQSLVHSNRNTYLHWYQQKPGQAPRLLIYKVSNRFSGVPDRFSGSGSGTDFTLKISRVEAEDVGVYYCGQGTQVPYTFGQGTKLEIKRTVAAPSVFIFPPSDEQLKSGTASVVCLLNNFYPREAKVQWKVDNALQSGNSQESVTEQDSKDSTYSLSSTLTLSKADYEKHKVYACEVTHQGLSSPVTKSFNRGEC
notes: one-arm antibody
B6: CE115HA000 S77T (antibody, human IgG1, kappa, L234A L235A, N297A, name in Kabat numbering)
heavy: QVQLVESGGGVVQPGRSLRLSCAASGFTFSNAWMHWVRQAPGKGLEWVAQIKAKSNNYATYYAESVKGRFTISRDDSKNTLYLQMNSLKTEDTAVYYCRYVHYGAYYGVDAWGQGTTVTVSSASTKGPSVFPLAPSSKSTSGGTAALGCLVKDYFPEPVTVSWNSGALTSGVHTFPAVLQSSGLYSLSSVVTVPSSSLGTQTYICNVNHKPSNTKVDKKVEPKSCDKTHTCPPCPAPEAAGGPSVFLFPPKPKDTLMISRTPEVTCVVVDVSHEDPEVKFNWYVDGVEVHNAKTKPREEQYASTYRVVSVLTVLHQDWLNGKEYKCKVSNKALPAPIEKTISKAKGQPREPQVYTLPPSRCELTKNQVSLSCAVKGFYPSDIAVEWESNGQPENNYKTTPPVLDSDGSFFLVSKLTVDKSRWQQGNVFSCSVMHEALHNHYTQKSLSLSPDYKDDDDK
chain: EPKSSDKTHTCPPCPAPELLGGPSVFLFPPKPKDTLMISRTPEVTCVVVDVSHEDPEVKFNWYVDGVEVHNAKTKPREEQYNSTYRVVSVLTVLHQDWLNGKEYKCKVSNKALPAPIEKTISKAKGQPREPQVCTLPPSRDELTKNQVSLWCLVKGFYPSDIAVEWESNGQPENNYKTTPPVLDSDGSFFLYSKLTVDKSRWQQGNVFSCSVMHEALHNRYTQKSLSLSP
light: DIVMTQSPLSLPVTPGEPASISCRSSQSLVHSNRNTYLHWYQQKPGQAPRLLIYKVSNRFSGVPDRFSGSGSGTDFTLKISRVEAEDVGVYYCGQGTQVPYTFGQGTKLEIKRTVAAPSVFIFPPSDEQLKSGTASVVCLLNNFYPREAKVQWKVDNALQSGNSQESVTEQDSKDSTYSLSSTLTLSKADYEKHKVYACEVTHQGLSSPVTKSFNRGEC
notes: one-arm antibody

T1 sequence (P07766 23-126): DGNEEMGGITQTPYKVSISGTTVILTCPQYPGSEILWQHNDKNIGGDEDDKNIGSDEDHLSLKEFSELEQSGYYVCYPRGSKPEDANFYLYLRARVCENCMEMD

This test has as its target T1, CD3 epsilon homodimer protein (UniProt P07766 23-126).
T1 construct: also called CD3 (CD3 epsilon)
As to the kind of experiment: SPR, CD3 epsilon homodimer on chip, one-arm antibody as analyte.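 Also: surface plasmon resonance at 25 °C with CD3 epsilon homodimer amine-coupled to a CM4 sensor chip, antibody injected as analyte, HBS-EP+ as running buffer.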
Protocol: An appropriate amount of CD3 epsilon homodimer protein was immobilized onto Sensor chip CM4 (GE Healthcare Japan Corp.) by the amine coupling method. Then, the antibody having an appropriate concentration was injected thereto as an analyte and allowed to interact with the CD3 epsilon homodimer protein on the sensor chip. Then, the sensor chip was regenerated by the injection of 10 mmol/L glycine-HCl (pH 1.5). The assay was conducted at 25 degrees C., and HBS-EP+(GE Healthcare Japan Corp.) was used as a running buffer. […] Each parameter was calculated using Biacore T200 Evaluation Software (GE Healthcare Japan Corp.).
Turning to B1, the “KD ratio (KD of CE115HA000/KD of altered form)” value (shortened to “KD ratio”) was determined as 0.7. Take B2: the “KD ratio” value is 0.93. As for B3, the “KD ratio” value came to 0.79. As for B4, the “KD ratio” value is 0.81. Regarding B5, the “KD ratio” value amounted to 0.87. Regarding B6, the “KD ratio” value is 0.83.
